The series in a line: label from the status in PepcDB records.

Our source for the protein production values is a protein production outcome set (Wang et al. 2014).
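Note: failed if final PepcDB status was selected cloned or expressed and not failed if soluble or beyond.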

In the case of “MGLRDAEVRRAWAARLASWLPAPPGDVLDLGCGTGSLSLLAAEQGHRVTGVDLSPAMVELARTKLAGRDAVFLTGDAAAPPVGEQRFDAVLVRHVLWTLPDPGRALRHWRQLLRPGGRLVLVEGVWGSVSPVGIPADRVTALLGPLTGQARVERLSDDPSLWGREVADERYAVVATYGLEHHHHHH”, the protein production entry is on record as “failed”. For “MGMAAESQFHVLAVDDSLFDRKLIERLLQKSSCQVTTVDSGSKALEFLGLRQSTDSNDPNAFSKAPVNHQVVEVNLIITDYCMPGMTGYDLLKKVKESSAFRDIPVVIMSSENVPARISRCLEEGAEEFFLKPVRLADLNKLKPHMMKTKLKNQKLEEIETTSKVENGVPTAVADPEIKDSTNIEIEILPLQQDLLLVQQEEQTLSINNKRKSVEEGISTDRARPRFDGIATAV”, the protein production entry is given as “failed”.

“MGMTRNLLAAGLAAVLALPALAAELVMVEQHGCEWCARWNEEIAPIYPKTAEGAFAPLRRVDLRAIPADLETARRVVFTPTFLIVEDGRELARLEGYPGEDFFWPLLEQLLVDHAGFVPKKPGSS”: the protein production result was “failed”. As for “MGNFMDDQCLLHASALTYSTLLSIVPFFALAFAVLKGLGVQNTLEPFILDQVAAGSHEIVDRIVTYINNTKVGSLGAVGLVTLVVSTVTLLGNIEETFNSIWGVRETRSLYRRFSDYLSVVVFGPILIFAAISVTTTLESQKAVQWLIGTAYLGDVLVAAFRLVPYVSIWLALVFLYMLIPNTKVRFRSALVGGVIAGTLWQAAQWGYIHFQVGVAKYNAIYGTLAVLPVFMIWLYASWSIVLFGVEVVYAHQHRRTFRHETHIPDLEPAARERLALALLLEVCRTFFRDGAPWNAERLAERLDVPERTARETLGMLVAKGWLAESCGEETLYLPARELEHMRVRELIASLRGHAMPLATGRFDPAVEWLAARMEGAVAAELGEVNFRTLAEGGGVD”, the entry is “failed”. Turning to “MGNGLMSKKKKKKNNKYKKKRPNVSRNCDWSKFCSDVLRKIFETLKSPIDSHRAFARISIQFGKHARTSLHVHGDSYTKVILPPSGNCLLMVDRRLKFYILNLLTRTTINLPSMSLIRGGQVFFKPQNEWSNDSGCFFGPSRNGNVSYDFDSVEWKNSVAVLWINETTGDYVVAWTFIQHYLFFYKSGYWSWCNLNHNGKSLVVFDMACENNKLYLYTANHHIRIFDFSGAYPMEKKTENPYWKYLFNAVEEPWEYVWKRKIAIQKSSGEVLIILSLKQVFYEAERLLFYIFKMNLESFKWERVYSLGDEMLVFGQGVTIPTALKDLGDGIKSDSIYFVDKDVWPDHQDHDRRVSNCGVFNIATSKIKWPTKKYRSVNETQWFVLGVAY”, the protein production result was “failed”.

As for “MGNHAGKRELNAEKASTNSETNRGESEKKRNLGELSRTTSEDNEVFGEADANQNNGTSSQDTAVTDSKRTADPKNAWQDAHPADPGSRPHLIRLFSRDAPGREDNTFKDRPSESDELQTIQEDSAATSESLDVMASQKRPSQRHGSKYLATASTMDHARHGFLPRHRDTGILDSIGRFFGGDRGAPKRGSGKVSSEE”, the protein production result is “failed”. Turning to “MGNKRFRSDNNAGKPTSVEATRIWATKVIEDFRASGNEVYTFEHNLSNNERGVIHQMCRKMGIQSKSSGRGEQRRLSIFKSRHKNGNKNEANEKSNKEKLKCVSFPPGADVILQELFTHYPPCDGDTAATSFTKYSGNKGKQGQWKDDFFRKPQISSEEILEKVASLSSRLKKDKALKEITKLRSKLPITSFKDAITSAVESNQVL”, the protein production entry was “failed”.

As to “MGNLTTILYFAYAPALALLWYFYHQDRLEPEPKRVVIGTFILGGTLSVSVALIVESLLVPRWFPRIPALLPATFLYISLIAGIVEEPAKALAIKYAYNSGHLYGIMDGVVYGVAAGLGFAATENLLYGLGYGVHVTIQRALLTPIGHATWSAIVGVGYGLKAEGKVYTLAPYFTLAVLLHFLWDYYAFMSSISPVYYGIVLLIFTINVLIIRWLIILGRKEDMERFWWYRILGGRRW”, the protein production entry is “failed”. On to “MGNNSESKGSASDSKGAETFTYKAENGNVKIPKHPKRVVVMADGYYGYFKTLGINVVGAPENVFKNPYYKGKTNGVENIGDGTSVEKVIDLNPDLIIVWTTQGADIKKLEKIAPTVAVKYDKLDNIEQLKEFAKMTGTEDKAEKWLAKWDKKVAAAKTKIKKAVGDKTISIMQTNGKDIYVFGKDFGRGGSIIYKDLGLQATKLTKEKAIDQGPGYTSISLEKLPDFAGDYIFAGPWQSGGDDGGVFESSIWKNLNAVKNGHVYKMDPIGFYFTDPISLEGQLEFITESLTKLEHHHHHH”, for which the protein production entry is “not failed”. For “MGNPADQKDSKAKQKTEVFPVTIDDASNQDVTIKKEPKKIVSLMPSNTEITYALGLGDKVVGVTTNDTYPKEVKKVEKVGDMNVNVEKVISLKPDLVLAHESSMSASADAIKQLKDAGITVLTVNDAQSFSEVYKSIEMIGEAGGAEKKADQLVKSMKSDLKDIQEKAKTISKDEEKSVFIEVSPDPDIYTTGKDTFMNEMLNVIHAKNAAADQTGWVQMTDEAIVKLNPDAIVTTDGVKAKAVEKRDGWSEINAVKHHRVYDVDPDLVTRSGPRLIEGVEELAESIYPDTFKE” the value was “failed”; for “MGNRSTADADGLLAGRGPAAGASAGASAGLAGQGAAALVGGVLLIGAVLAGNSLVCVSVATERALQTPTNSFIVSLAAADLLLALLVLPLFVYSEVQGGAWLLSPRLCDALMAMDVMLCTASIFNLCAISVDRFVAVAVPLRYNRQGGSRRQLLLIGATWLLSAAVAAPVLCGLNDVRGRDPAVCRLEDRDYVVYSSVCSFFLPCPLMLLLYWATFRGLQRWEVARRAKLHGRAPRRPSGPGPPSPTPPAPRLPQDPCGPDCAPPAPGLPRGPCGPDCAPAAPGLPPDPCGPDCAPPAPGLPQDPCGPDCAPPAPGLPRGPCGPDCAPPAPGLPQDPCGPDCAPPAPGLPPDPCGSNCAPPDAVRAAALPPQTPPQTRRRRRAKITGRERKAMRVLPVVVGAFLLCWTPFFVVHITQALCPACSVPPRLVSAVTWLGYVNSALNPVIYTVFNAEFRNVFRKALRACC”, “failed”; for “MGNSITVKRKRAKVMKIDGETFRIKTPVTAREVTADYPGYVLLDSQAVKHFGVRSKPLEPNQTLKPKKTYFLVELPKLPPETTAVDTENKLPYRRVMSGIHVGAKERLDMLMLSRRTVSDVTIGRSDGGDGFGPELGPGHTSVRLRLPRSQITKLMEENNNDASAIAEKILGIYMERSGELGGGRGGVDGRRELGSGEIKAREVSFAGEGGRELPVLWSRSGK”, “failed”. As for “MGPERHLSGAPARMATVVLGGDTMGPERIFPNQTEELGHQGPSEGTGDWSSEEPEEEQEETGSGPAGYSYQPLNQDPEQEEVELAPVGDGDVVADIQDRIQALGLHLPDPPLESEDEDEEGATALNNHSSIPMDPEHVELVKRTMAGVSLPAPGVPAWAREISDAQWEDVVQKALQARQASPAWK”, the entry is “failed”; as for “MGPKRRQLTFREKSRIIQEVEENPDLRKGEIARRFNIPPSTLSTILKNKRAILASERKYGVASTCRKTNKLSPYDKLEGLLIAWFQQIRAAGLPVKGIILKEKALRIAEELGMDDFTASNGWLDRFRRRRS”, “not failed”.

As to “MGPLVKEKYEEVEQIPLKKPHIVSLIGGFGYREPIFRKVLTTAALDSGINYTLISGPSLDPSKFKEIPKNVQILRFVGDTFPYIRSSDAVIAPGGHSTMMEALSFGTPILSFPDEGHSEQENNAAVIEEEGYGRMLSYSTPPEVILECIREVLEDKKYRDKVKRLQRLASELDGLEHHHHHH”, the protein production result was “not failed”. Consider “MGQELLVRAHEPETADIEIIPVTTVVQVTEQNSTGDAAVALDTVTVVGERYVDDIVATLTTLRVGMAVLLQRESGNQYDDNAISVWTLQHAKLGYIARYQNQPYATLMDQGQRLYGIVTVLDQQKQHLELMLWRTTAVPSPIEALEHHHHHH”, for which the protein production entry is on record as “failed”. For “MGQFYCLHCDRYFSNVSVRDDHFKTKKHKKRVNMMMGQAPHSQLDADLAGGMGMPDNGPKLMSNLVFTELRKPETEDLPGMGQFNCLLCHRNFSNASVMDYHFKTKKHKKRVKKIERPAPHSQLDADLAGGMGMPDNGPKLMSA”, the protein production entry was “not failed”. For “MGQHEPGAALGRMVRAAWSETLGEDHPDTLAAANRLAGCLVGLRKYAEARDLFADLLPRCERALGWEDPLTLTVVSNLGGCLSALGAHEEARRQCEDIVRRSRLALGPDDPRTLRAASNLAVFLRRLDDHQAALAVWEDTLLRYRRVLGEDHPDTLHAKRDLVALLRAMGEHDRAHAVAGEPLEHHHHHH” the value was “failed”.

“MGQVEVIDRRQSVFGDDIQLQKRSSSYEIISNGVFLMSTENGRSEREMVTLGAQHMKNAVHSVLIGGLGVGITADEAVHLNDHVQVHVVEIEPSVVEWQYRYLYPFSNQALEHERTAIIISDIQQWLRTNERTYDLICLDTDNGPDWMVHKQNASLYGKIGLELVRERVRVGGAVSFWSASASESFLHELETLFDRVYEHAVSISHTLPPDYVYVACRDLEHHHHHH”: the protein production entry is on record as “not failed”. For the sequence “MGRKRKHSETEAPAPVKKSDEPAPDRPKRTLLGWKDKSEGEAEKAKALTSSGFKNKEKVLVTCSRRISFRYRSLMLNIVSLLPHCKKDSKVEAKSSKGATLNELIELKNSNSCLFFECRKHKDLYMWMVKSPNGPSVKFLVKAVHAMEEMKLTGNHLKGSRPLLTFSSNFDKDAHWKLLKEMLTQVFGIPKEHRKSKPYHDHVFVFSIVDEHIWFRNYQISVPHNESDKIAKGGLDKMTLIEVGPRFCLNPIKIFAGSFGGPTLYENPLYVSPNQIRALEKRNKAGKFAKKIKAKTRKKMHELSNPLEPDEFADMWKDDE”, the protein production result is recorded as “failed”. For “MGRMSEKLGQDIKQSIFKVPPLIQKSDIDPEHCRVSAQLDDNVDDNIPLRVMLLLMDEVFDLKDRNQWLRRNIKNLLQQLIKATYGDTINRKIVDHVDNMTSPEQVSDYVKRFRDSYWPNGILAETPPRRDKNLRMRTRVAAKTTLLGIMPDELKHIIGADTTRKGILRVFEMFQHQPLNRRLVYVFLEGFLETLFPQYKFPELFEKLHSRSPRVLKYSHKLRSLQKR” the value was “failed”; for “MGRNQGAYLDPSESILMLMVAFLLVLLNAFFVLSEFALVKVRKTRLEELVKIGNSNAKLALKMSQRLDTYLSATQLGITLSSLALGWVGEPAIAKLLAALFESMDLRENPIFIHSMSVVIAFLSITFLHVVLGEIVPKSLAIAKSEKATLFAARPLHVFWVVFYPVVRLFDVIAHFFLKKMGINPKEHDGTHSEEELKIIVGESLREGIIDSVEGEIIKNAXDFSDTSAKEIMTPRKDMVCLDEENSYEENIDIVLKGHFTRYPYCKGSKDNIIGMVHIRDLLSRSIFTPKMHDFNQIVRKMIIVPESASISQILIKMKKEQIHTALVIDEYGGTAGLLTMEDIIEEIMGEISDEYDLKQEGINKLEEGVFELEGMLDLESVEEALHIEFDKECEQVTLGGYVFSLLERMPMEGDTIVSHGYSFEVLSVDGARIKRLKAVKQDQGENEA”, “failed”; for “MGRVYLVGAGPGDPELLTLKAYRLLKEAPVVLYDRLVDERVLALAPGEKVYVGKEEGESEKQEEIHRLLLRHARAHPFVVRLKGGDPMVFGRGGEEVLFLLRHGVPVEVVPGVTSLLASGLPLTHRGLAHGFAAVSGVLEGGGYPDLRPFARVPTLVVLMGVGRRVWIAKELLRLGRDPREPTLFVERASTPKERRVHARLEEVAEGKVEVRPPALWILGEVVRVFAEKEAPVDALALGG”, “not failed”. For “MGSGESKANTAETPEVLDVKLTGPEKVNPGESAAYEAAVSYGDEAVTDADEVEFEVWKEGEKDASQMFKVKQEKGVYRLETTFKEDGVYTVQSHVTAKKQHSMPTLKVQVGDADAASNQSEEEHSHHHLEHHHHHH” the value was “not failed”.
